This passage reports IC50 results from article PMC2765250 (Vaccine, 2009).

The target of this experiment is purified rhesus macaque MHC class I molecule Mamu-B*17 with human beta2-microglobulin (rhesus macaque | human). The experiment is described as follows: radioligand binding.

B1: VACV-WR peptide 71NP (LTIEAIENYF), ORF L4R (peptide)
peptide: LTIEAIENYF
In general, IC50 refers to the point on the concentration scale where inhibition reaches its midpoint. Read a low IC50 as inhibition by little substance. Take B1: the IC50 was 8.77 µM.

B2: VACV-WR peptide 51P (SSPLELFML), ORF E9L (peptide)
peptide: SSPLELFML
On to B2, for which the IC50 is 11.8 µM.
